Reference: patent US20160272683A1 (Novo Nordisk, published 2016)
Numbered stars: 1 amine (or outer) side, 2 acyl side, 3 side chain; on linkers, the order of the positions; unused ones are H or OH. Side chains are listed from the residue outwards. Ends that are not written are not given here. * marks the point of attachment. C20 diacid = O=C(O)CCCCCCCCCCCCCCCCCCC(=O)*; C18 diacid = O=C(O)CCCCCCCCCCCCCCCCC(=O)*; γGlu = O=C(O)[C@H](CCC(=O)[*:2])N[*:1]

T1: human amylin 3(a) receptor (human calcitonin receptor co-expressed with RAMP-3) (human, UniProt P30988 25-474; O60896 24-148, limits assumed)
T1 sequence (looked up) 1: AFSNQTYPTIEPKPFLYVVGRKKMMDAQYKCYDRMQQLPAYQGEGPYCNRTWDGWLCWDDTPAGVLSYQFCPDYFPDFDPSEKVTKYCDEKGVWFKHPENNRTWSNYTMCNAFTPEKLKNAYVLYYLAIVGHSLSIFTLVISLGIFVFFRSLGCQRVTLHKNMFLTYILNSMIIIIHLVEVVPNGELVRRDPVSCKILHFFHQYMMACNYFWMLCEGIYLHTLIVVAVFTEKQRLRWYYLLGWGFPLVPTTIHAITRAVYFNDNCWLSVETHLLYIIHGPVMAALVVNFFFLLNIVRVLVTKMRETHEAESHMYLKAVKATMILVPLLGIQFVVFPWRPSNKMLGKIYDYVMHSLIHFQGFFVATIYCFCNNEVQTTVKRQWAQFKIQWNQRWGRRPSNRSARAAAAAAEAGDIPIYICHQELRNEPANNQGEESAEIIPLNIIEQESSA
T1 sequence (looked up) 2: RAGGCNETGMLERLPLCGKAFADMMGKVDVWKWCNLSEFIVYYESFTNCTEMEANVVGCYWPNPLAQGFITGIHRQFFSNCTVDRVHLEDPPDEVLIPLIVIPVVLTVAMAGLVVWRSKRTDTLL

T2: human calcitonin receptor (human, UniProt P30988 25-474)
T2 sequence (looked up): T1 sequence (looked up) 1

B1: [N-terminal(C20 diacid-gGlu), 4G, 15Q, 21Q, 23Y, 30S, 31G, 32T, 33Y]mimylin (peptide)
peptide: {C20 diacid-γGlu}-EASGLSTAALGRLSQELHELQTYPRTETGSGTY-NH2
SMILES: CC(C)C[C@H](NC(=O)CNC(=O)[C@H](CO)NC(=O)[C@H](C)NC(=O)[C@H](CCC(=O)O)NC(=O)CC[C@H](NC(=O)CCCCCCCCCCCCCCCCCCC(=O)O)C(=O)O)C(=O)N[C@@H](CO)C(=O)N[C@H](C(=O)N[C@@H](C)C(=O)N[C@@H](C)C(=O)N[C@@H](CC(C)C)C(=O)NCC(=O)N[C@@H](CCCNC(=N)N)C(=O)N[C@@H](CC(C)C)C(=O)N[C@@H](CO)C(=O)N[C@@H](CCC(N)=O)C(=O)N[C@@H](CCC(=O)O)C(=O)N[C@@H](CC(C)C)C(=O)N[C@@H](Cc1c[nH]cn1)C(=O)N[C@@H](CCC(=O)O)C(=O)N[C@@H](CC(C)C)C(=O)N[C@@H](CCC(N)=O)C(=O)N[C@H](C(=O)N[C@@H](Cc1ccc(O)cc1)C(=O)N1CCC[C@H]1C(=O)N[C@@H](CCCNC(=N)N)C(=O)N[C@H](C(=O)N[C@@H](CCC(=O)O)C(=O)N[C@H](C(=O)NCC(=O)N[C@@H](CO)C(=O)NCC(=O)N[C@H](C(=O)N[C@@H](Cc1ccc(O)cc1)C(N)=O)[C@@H](C)O)[C@@H](C)O)[C@@H](C)O)[C@@H](C)O)[C@@H](C)O
B2: [N-terminal(C20 diacid-gGlu), des1, 4G, 15Q, 21Q, 23Y, 30S, 31Q, 32T, 33Y]mimylin (peptide)
peptide: {C20 diacid-γGlu}-ASGLSTAALGRLSQELHELQTYPRTETGSQTY-NH2
SMILES: CC(C)C[C@H](NC(=O)CNC(=O)[C@H](CO)NC(=O)[C@H](C)NC(=O)CC[C@H](NC(=O)CCCCCCCCCCCCCCCCCCC(=O)O)C(=O)O)C(=O)N[C@@H](CO)C(=O)N[C@H](C(=O)N[C@@H](C)C(=O)N[C@@H](C)C(=O)N[C@@H](CC(C)C)C(=O)NCC(=O)N[C@@H](CCCNC(=N)N)C(=O)N[C@@H](CC(C)C)C(=O)N[C@@H](CO)C(=O)N[C@@H](CCC(N)=O)C(=O)N[C@@H](CCC(=O)O)C(=O)N[C@@H](CC(C)C)C(=O)N[C@@H](Cc1c[nH]cn1)C(=O)N[C@@H](CCC(=O)O)C(=O)N[C@@H](CC(C)C)C(=O)N[C@@H](CCC(N)=O)C(=O)N[C@H](C(=O)N[C@@H](Cc1ccc(O)cc1)C(=O)N1CCC[C@H]1C(=O)N[C@@H](CCCNC(=N)N)C(=O)N[C@H](C(=O)N[C@@H](CCC(=O)O)C(=O)N[C@H](C(=O)NCC(=O)N[C@@H](CO)C(=O)N[C@@H](CCC(N)=O)C(=O)N[C@H](C(=O)N[C@@H](Cc1ccc(O)cc1)C(N)=O)[C@@H](C)O)[C@@H](C)O)[C@@H](C)O)[C@@H](C)O)[C@@H](C)O
B3: [N-terminal(C18 diacid), 9I]mimylin (peptide)
peptide: {C18 diacid}-EASELSTAILGRLSAELHELATLPRTETGPESP-NH2
SMILES: CC[C@H](C)[C@H](NC(=O)[C@H](C)NC(=O)[C@@H](NC(=O)[C@H](CO)NC(=O)[C@H](CC(C)C)NC(=O)[C@H](CCC(=O)O)NC(=O)[C@H](CO)NC(=O)[C@H](C)NC(=O)[C@H](CCC(=O)O)NC(=O)CCCCCCCCCCCCCCCCC(=O)O)[C@@H](C)O)C(=O)N[C@@H](CC(C)C)C(=O)NCC(=O)N[C@@H](CCCNC(=N)N)C(=O)N[C@@H](CC(C)C)C(=O)N[C@@H](CO)C(=O)N[C@@H](C)C(=O)N[C@@H](CCC(=O)O)C(=O)N[C@@H](CC(C)C)C(=O)N[C@@H](Cc1c[nH]cn1)C(=O)N[C@@H](CCC(=O)O)C(=O)N[C@@H](CC(C)C)C(=O)N[C@@H](C)C(=O)N[C@H](C(=O)N[C@@H](CC(C)C)C(=O)N1CCC[C@H]1C(=O)N[C@@H](CCCNC(=N)N)C(=O)N[C@H](C(=O)N[C@@H](CCC(=O)O)C(=O)N[C@H](C(=O)NCC(=O)N1CCC[C@H]1C(=O)N[C@@H](CCC(=O)O)C(=O)N[C@@H](CO)C(=O)N1CCC[C@H]1C(N)=O)[C@@H](C)O)[C@@H](C)O)[C@@H](C)O
B4: [N-terminal(C20 diacid-gGlu), des1, 4G, 9V, 23Y, 30S, 31G, 32T, 33Y]mimylin (peptide)
peptide: {C20 diacid-γGlu}-ASGLSTAVLGRLSAELHELATYPRTETGSGTY-NH2
SMILES: CC(C)C[C@H](NC(=O)CNC(=O)[C@H](CO)NC(=O)[C@H](C)NC(=O)CC[C@H](NC(=O)CCCCCCCCCCCCCCCCCCC(=O)O)C(=O)O)C(=O)N[C@@H](CO)C(=O)N[C@H](C(=O)N[C@@H](C)C(=O)N[C@H](C(=O)N[C@@H](CC(C)C)C(=O)NCC(=O)N[C@@H](CCCNC(=N)N)C(=O)N[C@@H](CC(C)C)C(=O)N[C@@H](CO)C(=O)N[C@@H](C)C(=O)N[C@@H](CCC(=O)O)C(=O)N[C@@H](CC(C)C)C(=O)N[C@@H](Cc1c[nH]cn1)C(=O)N[C@@H](CCC(=O)O)C(=O)N[C@@H](CC(C)C)C(=O)N[C@@H](C)C(=O)N[C@H](C(=O)N[C@@H](Cc1ccc(O)cc1)C(=O)N1CCC[C@H]1C(=O)N[C@@H](CCCNC(=N)N)C(=O)N[C@H](C(=O)N[C@@H](CCC(=O)O)C(=O)N[C@H](C(=O)NCC(=O)N[C@@H](CO)C(=O)NCC(=O)N[C@H](C(=O)N[C@@H](Cc1ccc(O)cc1)C(N)=O)[C@@H](C)O)[C@@H](C)O)[C@@H](C)O)[C@@H](C)O)C(C)C)[C@@H](C)O
B5: [N-terminal(C18 diacid-gGlu), des1, 6T, 9V, 14T, 21E, 30T, 31G, 32T]mimylin (peptide)
peptide: {C18 diacid-γGlu}-ASELTTAVLGRLTAELHELETLPRTETGTGTP-NH2
SMILES: CC(C)C[C@H](NC(=O)[C@H](CCC(=O)O)NC(=O)[C@H](C)NC(=O)[C@@H](NC(=O)[C@H](CC(C)C)NC(=O)[C@H](CCCNC(=N)N)NC(=O)CNC(=O)[C@H](CC(C)C)NC(=O)[C@@H](NC(=O)[C@H](C)NC(=O)[C@@H](NC(=O)[C@@H](NC(=O)[C@H](CC(C)C)NC(=O)[C@H](CCC(=O)O)NC(=O)[C@H](CO)NC(=O)[C@H](C)NC(=O)CC[C@H](NC(=O)CCCCCCCCCCCCCCCCC(=O)O)C(=O)O)[C@@H](C)O)[C@@H](C)O)C(C)C)[C@@H](C)O)C(=O)N[C@@H](Cc1c[nH]cn1)C(=O)N[C@@H](CCC(=O)O)C(=O)N[C@@H](CC(C)C)C(=O)N[C@@H](CCC(=O)O)C(=O)N[C@H](C(=O)N[C@@H](CC(C)C)C(=O)N1CCC[C@H]1C(=O)N[C@@H](CCCNC(=N)N)C(=O)N[C@H](C(=O)N[C@@H](CCC(=O)O)C(=O)N[C@H](C(=O)NCC(=O)N[C@H](C(=O)NCC(=O)N[C@H](C(=O)N1CCC[C@H]1C(N)=O)[C@@H](C)O)[C@@H](C)O)[C@@H](C)O)[C@@H](C)O)[C@@H](C)O
B6: [des1, 4G, 15Q, 21Q, 23Y, 30S, 31K(C20 diacid-gGlu), 32T, 33Y]mimylin (peptide)
peptide: ASGLSTAALGRLSQELHELQTYPRTETGSK([γGlu-C20 diacid])TY-NH2
modifications: N-terminus assumed
SMILES: CC(C)C[C@H](NC(=O)CNC(=O)[C@H](CO)NC(=O)[C@H](C)N)C(=O)N[C@@H](CO)C(=O)N[C@H](C(=O)N[C@@H](C)C(=O)N[C@@H](C)C(=O)N[C@@H](CC(C)C)C(=O)NCC(=O)N[C@@H](CCCNC(=N)N)C(=O)N[C@@H](CC(C)C)C(=O)N[C@@H](CO)C(=O)N[C@@H](CCC(N)=O)C(=O)N[C@@H](CCC(=O)O)C(=O)N[C@@H](CC(C)C)C(=O)N[C@@H](Cc1c[nH]cn1)C(=O)N[C@@H](CCC(=O)O)C(=O)N[C@@H](CC(C)C)C(=O)N[C@@H](CCC(N)=O)C(=O)N[C@H](C(=O)N[C@@H](Cc1ccc(O)cc1)C(=O)N1CCC[C@H]1C(=O)N[C@@H](CCCNC(=N)N)C(=O)N[C@H](C(=O)N[C@@H](CCC(=O)O)C(=O)N[C@H](C(=O)NCC(=O)N[C@@H](CO)C(=O)N[C@@H](CCCCNC(=O)CC[C@H](NC(=O)CCCCCCCCCCCCCCCCCCC(=O)O)C(=O)O)C(=O)N[C@H](C(=O)N[C@@H](Cc1ccc(O)cc1)C(N)=O)[C@@H](C)O)[C@@H](C)O)[C@@H](C)O)[C@@H](C)O)[C@@H](C)O
B7: [N-terminal(C18 diacid-gGlu), des1, 5V, 9V, 10V, 20V, 30S, 31G]mimylin (peptide)
peptide: {C18 diacid-γGlu}-ASEVSTAVVGRLSAELHEVATLPRTETGSGSP-NH2
SMILES: CC(C)C[C@H](NC(=O)[C@H](CCCNC(=N)N)NC(=O)CNC(=O)[C@@H](NC(=O)[C@@H](NC(=O)[C@H](C)NC(=O)[C@@H](NC(=O)[C@H](CO)NC(=O)[C@@H](NC(=O)[C@H](CCC(=O)O)NC(=O)[C@H](CO)NC(=O)[C@H](C)NC(=O)CC[C@H](NC(=O)CCCCCCCCCCCCCCCCC(=O)O)C(=O)O)C(C)C)[C@@H](C)O)C(C)C)C(C)C)C(=O)N[C@@H](CO)C(=O)N[C@@H](C)C(=O)N[C@@H](CCC(=O)O)C(=O)N[C@@H](CC(C)C)C(=O)N[C@@H](Cc1c[nH]cn1)C(=O)N[C@@H](CCC(=O)O)C(=O)N[C@H](C(=O)N[C@@H](C)C(=O)N[C@H](C(=O)N[C@@H](CC(C)C)C(=O)N1CCC[C@H]1C(=O)N[C@@H](CCCNC(=N)N)C(=O)N[C@H](C(=O)N[C@@H](CCC(=O)O)C(=O)N[C@H](C(=O)NCC(=O)N[C@@H](CO)C(=O)NCC(=O)N[C@@H](CO)C(=O)N1CCC[C@H]1C(N)=O)[C@@H](C)O)[C@@H](C)O)[C@@H](C)O)C(C)C

How the values were obtained:
[1] = molecular target: T1, human amylin 3(a) receptor (human …); assay: cell-based or functional assay
[2] = molecular target: T2, human calcitonin receptor; assay: cell-based or functional assay

| Binder | hAmylin-R funct. EC50 (pM) [1] | hCTR funct. EC50 (pM) [2] |
| --- | --- | --- |
| B1 | 43 pM | 23 pM |
| B2 | 37 pM | 25 pM |
| B3 | 16 pM | 5 pM |
| B4 | 67 pM | 70 pM |
| {C18 diacid-γGlu}-ASELTTAVLGRLEAELHELTTLPRTETGTGTP-NH2 [[N-terminal(C18 diacid-gGlu), des1, 6T, 9V, 14E, 21T, 30T, 31G, 32T]mimylin] | 386 pM | 66 pM |
| B5 | 235 pM | 45 pM |
| B6 | 68 pM | 36 pM |
| B7 | 12 pM | 6 pM |
